Experimental data published in PMC1931443, “Vertebrate DM domain proteins bind similar DNA sequences and can heterodimerize on DNA” (BMC Molecular Biology, 2007).

B1: DMRT1 of the heterodimerization gel shifts (complex not affected by the 9E10 anti-Myc antibody) (natural protein)
chain: not shown
notes: DMRT1, mouse; the construct used in this experiment is not described; The methods describe only a Myc-tagged DMRT1 construct; source: in vitro translated, not purified
B2: DMRT3 (mouse), Myc epitope tagged, in vitro translated (natural protein, UniProt Q80WT2 1-476, looked up)
chain: MNGYGSPYLYMGGPVSQPPRAPLQRTPKCARCRNHGVLSWLKGHKRYCRFKDCTCEKCILIIERQRVMAAQVALRRQQANESLESLIPDSLRALPGPPPPGDAAATAATASQSSPASQASQPPAPPRPTAELAAAAALRWVAEPQPGTLPAQLAKPDLTEERVGDSSSTDNTAEAFSDKDTDQRSSPDVVKSKNCFTPESPEIVSVDEGGYAVQKNGGNPESCPDSPKYHAEQSHLLIEGPSGTVSLPFSLKANRPPLEVLKKIFPNQKPTVLELILKGCGGDLVSAVEVLLSSRSSAAGAERTAEESLVLPSSGHIFEHTLGSYPISSSKWSVGSAFRVPDTLRFSADSSNVVPNPLAVPLQHPFPQPPRYPLMLRNTLARNQSSPFLPNDVTLWNTMTLQQQYQLRSQYVSPFPSNSTSVFRSSPVLSSRTTEDPRISIPDDGCPIVTKQSIYTEDDYDERSDSSDSRILNTSS
notes: DMRT3, mouse; also called tagged DMRT3; source: in vitro translated (TNT Quick Coupled transcription/translation system, Promega, with 20 uM ZnSO4), not purified
B3: DMRT5 (mouse), Myc epitope tagged, in vitro translated (natural protein, UniProt A2A9A2 1-531, looked up)
chain: MELRSELPSVPGAATAAATATGPPVASVASVAAAAAAAASLPVSVAGGLLRAPPLLLRAAEKYPRTPKCARCRNHGVVSALKGHKRYCRWKDCLCAKCTLIAERQRVMAAQVALRRQQAQEENEARELQLLYGTAEGLALAAANGIIPPRPAYEVFGSVCATDGGGPGAGAPAGSAGGAGGAEAKLQKFDLFPKTLLQAGRPDSPQPPPGKPLSPDGADSGPRTSSPEVRPGSGSENGDGESFSGSPLARASKEAGGSCPGSAGAGGGGEEDSPGSSSPLGSESGSEADKEEAEAAPTPGLGGGPGPRQRTPLDILTRVFPGHRRGVLELVLQGCGGDVVQAIEQVLNHHRGGLAAGLGPAAPLEKAAVSAAVEDAWPGRVEAAAAGGAGLPAPLQTGPTAPPHHRPLLAGAMTPGALGSLSSRSAFSPLQPNASHFGADAGAYPLGAPLGLSPLRLAYSAAAAHSRGLAFMAPYSTAGLVPTLGFRPPMDYAFSDLMRDRSAAAAAAVHKEPGYGGGLYGPMVNGTPEKQ
notes: DMRT5, mouse; source: in vitro translated (TNT Quick Coupled transcription/translation system, Promega, with 20 uM ZnSO4), not purified
B4: DMRT1 (mouse), full-length, amino-terminal Myc epitope tag, in vitro translated (natural protein)
chain: not shown
notes: DMRT1, mouse, full-length protein made by in vitro transcription/translation; also called in vitro translated DMRT1; source: in vitro translated (TNT Quick Coupled transcription/translation system, Promega, with 20 uM ZnSO4), not purified

Assays:
[1] = target: the molecule itself; assay: native gel or EMSA; DMRT1 alone or together with a Myc-tagged DMRT protein (in vitro translated) on labelled DMRT1 consensus probe; composition of the DNA/protein complexes tested by supershift with DMRT1 antibody or anti-Myc 9E10; dimers seen on DNA
[2] = target: the molecule itself; assay: native gel or EMSA; one in vitro translated DMRT protein (4 ul translation mix) with 32P-labelled dsDNA probe bearing the DMRT1 consensus site; monomer and dimer complexes seen on DNA; 10 mM Tris-HCl pH 7.9, 100 mM KCl, 10% glycerol, 5 mM MgCl2, 1 mM spermidine, 0.075% Triton-X-100, 1 mM DTT; on ice 10 min; 5% native gel at 4 C

Protein | stoichiometry N [1] | stoichiometry N [2]
B1 | 2 | –
B2 | – | 2
B3 | – | 2
B4 | – | 2
